Source: US20090028859A1 (published 2009)

What was measured:
Flt-1-Fc fusion protein [1] = target: T1, Flt-1-Fc fusion protein (human, UniProt P17948-2 27-687, limits assumed); experiment: competition ELISA: inhibition of Flt-1-Fc binding to immobilized VEGF165, reference scFv 6.12
T1 construct: Bought from R&D Systems; also called VEGFR-1; not shown: Fc part

[2] = target: T2, KDR-alkaline phosphatase (AP) soluble fusion protein (human, UniProt P35968 20-764); experiment: direct binding ELISA on immobilized KDR, detection with anti-E tag antibody-HRP, A450
T2 construct: also called KDR-AP; soluble KDR; not shown: alkaline phosphatase (AP) fusion partner
T2 sequence (P35968 20-764): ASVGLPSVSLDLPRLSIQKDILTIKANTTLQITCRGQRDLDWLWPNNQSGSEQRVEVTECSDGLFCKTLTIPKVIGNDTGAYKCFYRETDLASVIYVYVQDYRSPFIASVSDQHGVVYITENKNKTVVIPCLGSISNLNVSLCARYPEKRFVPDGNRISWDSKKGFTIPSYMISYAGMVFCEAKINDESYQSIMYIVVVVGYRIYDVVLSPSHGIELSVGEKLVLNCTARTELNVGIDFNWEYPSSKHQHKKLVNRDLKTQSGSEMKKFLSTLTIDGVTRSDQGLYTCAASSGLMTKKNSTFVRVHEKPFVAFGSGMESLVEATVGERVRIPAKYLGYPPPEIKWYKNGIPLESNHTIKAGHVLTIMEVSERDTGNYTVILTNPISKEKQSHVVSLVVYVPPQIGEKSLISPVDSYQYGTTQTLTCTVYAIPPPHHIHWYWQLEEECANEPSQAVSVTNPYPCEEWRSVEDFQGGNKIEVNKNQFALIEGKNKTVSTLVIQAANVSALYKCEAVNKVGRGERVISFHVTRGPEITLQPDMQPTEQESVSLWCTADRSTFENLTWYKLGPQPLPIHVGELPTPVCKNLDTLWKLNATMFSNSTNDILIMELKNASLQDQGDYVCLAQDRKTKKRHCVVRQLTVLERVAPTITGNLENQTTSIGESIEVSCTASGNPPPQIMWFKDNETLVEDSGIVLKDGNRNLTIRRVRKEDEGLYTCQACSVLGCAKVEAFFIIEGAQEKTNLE
Method: (§1) Two assays were carried out to determine the dual antigen binding capability of the diabody. First, a cross-linking assay was used to investigate whether the diabody is capable of binding both of its target antigens simultaneously. Briefly, the diabody or its parent scFv were first incubated in a 96-well Maxi-sorp microtiter plate (Nunc, Roskilde, Denmark) precoated with Flt-1-Fc fusion protein (1 μg/ml×[…] per well overnight at 4° C.) at room temperature (RT) for 1 h. The plate was washed three times with PBS containing 0.1% Tween (PBST), followed by incubation with KDR-AP fusion protein at RT for additional 1 h. The plate-bound KDR-AP was then quantified by the addition of AP substrate, p-nitrophenyl phosphate (Sigma, St. Louis, Mo.), followed by reading of the absorbance at 405 nm (Lu, D. et al., 1999). In the second, direct binding assay, various amounts of diabody or scFv were added to KDR or Flt-1 coated 96-well plates and incubated at RT for 1 h, after which the plates were washed 3 times with PBST. The plates were then incubated at RT for 1 h with 100 μl of an anti-E tag antibody-HRP conjugate (Amersham Pharmacia Biotech). The plates were washed, peroxidase substrate added, and the absorbance at 450 nm read following the procedure described previously (Lu, D. et al., 1999).

Flt-1-Fc fusion protein [3] = target: T1, Flt-1-Fc fusion protein; experiment: blocking ELISA: antibody mixed with a fixed amount of Flt-1-Fc, transferred to immobilized PlGF, plate-bound Flt-1-Fc detected with anti-human Fc-HRP, A450
Method: The assays followed previously described protocols (Zhu, Z. et al., 1998; Lu, D. et al., 1999). Briefly, various amounts of the diabody or scFv were mixed with a fixed amount of KDR-AP (100 ng) or Flt-1-Fc fusion protein (50 ng) and incubated at RT for 1 h. The mixture were then transferred to 96-well microtiter plates precoated with VEGF₁₆₅ (200 ng/well) or PlGF (200 ng/well) and incubated at RT for an additional 2 h, after which the plates were washed 5 times with PBS. For the KDR-AP assay, the substrate for AP was added, followed by reading of the absorbance at 405 nm to quantify the plate-bound KDR-AP. For the Flt-1-Fc assay, the plate was incubated with a mouse anti-human Fc-HRP conjugate to quantify the plate-bound Flt-1-Fc.

Flt-1-Fc fusion protein [4] = target: T1, Flt-1-Fc fusion protein; experiment: BIAcore SPR, Flt-1-Fc immobilized, antibody injected
Method: The binding kinetics of the diabody and its parent scFv to KDR and Flt-1 were measured using a BIAcore biosensor (Pharmacia Biosensor). KDR-AP or Flt-1-Fc fusion protein was immobilized onto a sensor chip and soluble antibodies were injected at concentrations ranging from 1.5 nM to 100 nM. Sensorgrams were obtained at each concentration and were analyzed with, BIA Evaluation 2.0, a program to determine the rate constants kon and koff. The affinity constant, Kd, was calculated from the ratio of rate constants koff/kon.

Flt-1-Fc fusion protein [5] = target: T1, Flt-1-Fc fusion protein; experiment: direct binding ELISA on immobilized Flt-1, detection with anti-E tag antibody-HRP, A450
Method: as §1

T1 sequence (P17948 other isoform, or with tags, fused parts or gaps limits assumed): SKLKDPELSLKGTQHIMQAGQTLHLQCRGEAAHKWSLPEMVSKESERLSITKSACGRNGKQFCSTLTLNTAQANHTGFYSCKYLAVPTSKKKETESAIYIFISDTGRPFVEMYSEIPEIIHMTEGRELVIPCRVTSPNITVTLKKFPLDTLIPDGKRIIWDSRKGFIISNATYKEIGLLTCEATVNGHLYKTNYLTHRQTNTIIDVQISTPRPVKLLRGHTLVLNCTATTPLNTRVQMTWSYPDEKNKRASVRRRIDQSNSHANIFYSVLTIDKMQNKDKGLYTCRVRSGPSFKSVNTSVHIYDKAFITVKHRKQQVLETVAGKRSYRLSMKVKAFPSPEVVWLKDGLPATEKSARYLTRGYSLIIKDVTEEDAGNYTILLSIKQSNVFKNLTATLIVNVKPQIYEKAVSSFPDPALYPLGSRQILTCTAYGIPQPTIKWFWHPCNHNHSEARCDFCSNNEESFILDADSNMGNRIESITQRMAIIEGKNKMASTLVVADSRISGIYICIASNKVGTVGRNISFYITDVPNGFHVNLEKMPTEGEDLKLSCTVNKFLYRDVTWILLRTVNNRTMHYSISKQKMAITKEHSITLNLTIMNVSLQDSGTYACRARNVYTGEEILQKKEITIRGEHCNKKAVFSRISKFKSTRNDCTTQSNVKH

B1: anti-KDR x anti-Flt-1 bifunctional diabody (bispecific antibody, part only; not given: anti-KDR domains, E tag, not shown: small tags and cut ends)
chain, part 1: GGGGSQVKLQQSGAELVKPGASVKLSCTASGFNIKDTYIHWVKQSPEQGLEWIGWIDPPNDNTKYDPKFQGKATITADTSSNTAYMQLRSLTSEDTAVYYCALPPFYFDYWGHGTTVTVSS
chain, part 2: DIELTQSPKFMSTSVGDRVSVTCKASQNVDTNVAWYQQKPGQSPKALIYSASYRYSGVPDRFTGSGSGTDFTLTISNVQSEDLAEYFCQQYNSFPYTFGGGTKLEIKRAGGGGS
- fold less potent than the parent scFv 6.12 (Flt-1-Fc fusion protein [1]): 10 fold

B2: scFv 6.12 (scFv)
scFv: QVKLQQSGAELVKPGASVKLSCTASGFNIKDTYIHWVKQSPEQGLEWIGWIDPPNDNTKYDPKFQGKATITADTSSNTAYMQLRSLTSEDTAVYYCALPPFYFDYWGHGTTVTVSSGGGGSGGGGSGGGGSDIELTQSPKFMSTSVGDRVSVTCKASQNVDTNVAWYQQKPGQSPKALIYSASYRYSGVPDRFTGSGSGTDFTLTISNVQSEDLAEYFCQQYNSFPYTFGGGTKLEIKRA
notes: expressed soluble from pCANTAB 5E and detected with anti-E tag antibody; not shown: E tag from vector pCANTAB 5E
- binding result [2]: no binding (tested: about 12 nM)
- IC50 (read off the curve) (Flt-1-Fc fusion protein [3]): ~1 nM
- Kd (Flt-1-Fc fusion protein [4]): 9.8 nM
- koff (Flt-1-Fc fusion protein [4]): 0.00236 s⁻¹
- kon (Flt-1-Fc fusion protein [4]): 241000 M⁻¹ s⁻¹
- EC50 (read off the curve) (Flt-1-Fc fusion protein [5]): ~0.6 nM

B3: scFv p1C11 (scFv)
scFv: QVKLQQSGAELVGSGASVKLSCTTSGFNIKDFYMHWVKQRPEQGLEWIGWIDPENGDSDYAPKFQGKATMTADSSSNTAYLQLSSLTSEDTAVYYCNAYYGDYEGYWGQGTTVTVSSGGGGSGGGGSGGGGSDIELTQSPAIMSASPGEKVTITCSASSSVSYMHWFQQKPGTSPKLWIYSTSNLASGVPARFSGSGSGTSYSLTISRMEAEDAATYYCQQRSSYPFTFGSGTKLEIK
notes: Mouse scFv from a phage library, VH and VL joined by (GGGGS)3, made soluble from pCANTAB 5E with a C-terminal E tag (detected with anti-E tag antibody); It is not known whether the entry includes the tag; also called anti-KDR scFv
- EC50 (read off the curve) [2]: ~0.3 nM
